Laboratory results reported in paper PMC12098869, “An mRNA-display derived cyclic peptide scaffold reveals the substrate binding interactions of an N-terminal cysteine oxidase” (Nature Communications, 2025).
Where “and” joins values, the source holds several entries; their conditions need not be identical. Equal values may be shown once.

Key:
Test in all cases: SPR; biotinylated ADO or ADO mutant immobilised on a Biotin CAP chip (~2500-3000 RU), substrate peptide injected; Biacore T200, 4 °C; 20 mM HEPES pH 7.5, 500 mM NaCl, 10 mM DTT, 0.1% tween-20; 50 µL/minute; multi-cycle or single-cycle mode not given; each cell is one of three independent measurements
Conditions in all cases: both partners purified
[1] = molecular target: T1, ADO-C220A, N-terminally His-tagged and biotinylated (human, UniProt Q96SZ5 1-270, C220A, biotin (biotinylated during expression))
T1 construct: 2-aminoethanethiol dioxygenase (ADO), human, UniProt Q96SZ5, full length, site-directed mutant; source: E. coli Rosetta2(DE3), purified (Ni-NTA, SEC); not shown: biotinylation tag (from the vector pQE80L-Navi), N-terminal, kept
T1 sequence (looked up): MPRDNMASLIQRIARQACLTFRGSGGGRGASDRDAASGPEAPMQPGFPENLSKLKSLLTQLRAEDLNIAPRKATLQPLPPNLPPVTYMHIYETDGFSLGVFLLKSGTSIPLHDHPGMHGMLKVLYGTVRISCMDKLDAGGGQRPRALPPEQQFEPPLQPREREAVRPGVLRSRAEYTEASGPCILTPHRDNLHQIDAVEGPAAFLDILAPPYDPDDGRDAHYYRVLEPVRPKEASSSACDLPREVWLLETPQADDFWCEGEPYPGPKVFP

[2] = molecular target: T2, ADO-F101A, N-terminally His-tagged and biotinylated (human, UniProt Q96SZ5 1-270, F101A, biotin (biotinylated during expression))
T2 construct: 2-aminoethanethiol dioxygenase (ADO), human, UniProt Q96SZ5, full length, site-directed mutant; source: E. coli Rosetta2(DE3), purified (Ni-NTA, SEC); not shown: biotinylation tag (from the vector pQE80L-Navi), N-terminal, kept
T2 sequence (looked up): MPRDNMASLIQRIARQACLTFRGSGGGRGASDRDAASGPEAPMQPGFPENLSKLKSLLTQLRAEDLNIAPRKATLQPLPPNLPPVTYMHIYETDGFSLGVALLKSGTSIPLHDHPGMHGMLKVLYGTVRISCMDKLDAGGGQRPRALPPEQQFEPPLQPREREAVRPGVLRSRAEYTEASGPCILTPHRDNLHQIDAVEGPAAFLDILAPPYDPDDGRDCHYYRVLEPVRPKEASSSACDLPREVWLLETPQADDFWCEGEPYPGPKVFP

[3] = molecular target: T3, ADO-Y87A, N-terminally His-tagged and biotinylated (human, UniProt Q96SZ5 1-270, Y87A, biotin (biotinylated during expression))
T3 construct: 2-aminoethanethiol dioxygenase (ADO), human, UniProt Q96SZ5, full length, site-directed mutant; source: E. coli Rosetta2(DE3), purified (Ni-NTA, SEC); not shown: biotinylation tag (from the vector pQE80L-Navi), N-terminal, kept
T3 sequence (looked up): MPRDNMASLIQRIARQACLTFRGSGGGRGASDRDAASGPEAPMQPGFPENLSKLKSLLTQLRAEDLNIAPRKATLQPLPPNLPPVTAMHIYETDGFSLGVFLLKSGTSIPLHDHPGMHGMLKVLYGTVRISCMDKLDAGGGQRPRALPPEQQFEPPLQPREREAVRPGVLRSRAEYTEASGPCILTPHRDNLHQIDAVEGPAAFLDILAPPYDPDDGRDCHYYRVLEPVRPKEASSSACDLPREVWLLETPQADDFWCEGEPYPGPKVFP

[4] = molecular target: T4, ADO-Y212A, N-terminally His-tagged and biotinylated (human, UniProt Q96SZ5 1-270, Y212A, biotin (biotinylated during expression))
T4 construct: 2-aminoethanethiol dioxygenase (ADO), human, UniProt Q96SZ5, full length, site-directed mutant; source: E. coli Rosetta2(DE3), purified (Ni-NTA, SEC); not shown: biotinylation tag (from the vector pQE80L-Navi), N-terminal, kept
T4 sequence (looked up): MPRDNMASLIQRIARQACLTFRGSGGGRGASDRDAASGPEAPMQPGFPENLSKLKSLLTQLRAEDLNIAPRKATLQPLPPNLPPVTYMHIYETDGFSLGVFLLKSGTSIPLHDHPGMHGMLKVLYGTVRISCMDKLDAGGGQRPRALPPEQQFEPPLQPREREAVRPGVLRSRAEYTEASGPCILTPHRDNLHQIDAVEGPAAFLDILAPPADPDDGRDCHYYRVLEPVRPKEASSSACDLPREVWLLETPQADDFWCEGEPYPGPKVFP

[5] = molecular target: T5, ADO-F256A, N-terminally His-tagged and biotinylated (human, UniProt Q96SZ5 1-270, F256A, biotin (biotinylated during expression))
T5 construct: 2-aminoethanethiol dioxygenase (ADO), human, UniProt Q96SZ5, full length, site-directed mutant; source: E. coli Rosetta2(DE3), purified (Ni-NTA, SEC); not shown: biotinylation tag (from the vector pQE80L-Navi), N-terminal, kept
T5 sequence (looked up): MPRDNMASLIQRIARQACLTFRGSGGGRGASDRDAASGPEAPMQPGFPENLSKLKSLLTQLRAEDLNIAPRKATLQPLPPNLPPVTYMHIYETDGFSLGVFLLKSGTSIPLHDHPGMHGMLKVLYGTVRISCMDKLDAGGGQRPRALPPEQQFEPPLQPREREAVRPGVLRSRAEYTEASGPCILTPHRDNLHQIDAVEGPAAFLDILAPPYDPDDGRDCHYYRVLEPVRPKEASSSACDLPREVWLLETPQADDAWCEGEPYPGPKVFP

Binder | Kd [1] | Kd [2] | Kd [3] | Kd [4] | Kd [5]
CKGLAALPHSCLER (peptide, UniProt O15539 2-15, looked up, regulator of G-protein signalling 5 (RGS5), residues 2 to 15 (N-terminal Cys exposed); UniProt O15539 is printed for the full-length human protein; also called 14-mer RGS5; source: synthetic peptide) | 960 nM and 1120 nM and 1310 nM | 42700 nM and 46300 nM and 52300 nM | 1480 nM and 1650 nM and 1840 nM |  | 
CFPKVLSDDMKKLK (peptide, UniProt P24001 2-15, looked up, interleukin 32 (IL32), residues 2-15 (N-terminal Cys exposed); also called 14-mer IL32; source: synthetic peptide) |  |  |  | 34000 nM and 24700 nM | 751 nM and 900 nM and 973 nM
